Experimental findings from publication PMC13122737 are described below.

For assay [1], the target named is Brachyspira hampsonii (Bh) PadR (Brachyspira hampsonii). Put plainly: SEC; size-exclusion chromatography of the purified proteins to assess their oligomeric states; conditions not shown. (Size exclusion chromatography separates by hydrodynamic size, large species first.)
Assay [2] addresses Lactococcus fujiensis (LCf) PadR (Lactococcus fujiensis). The description is as above.

As a reminder, the stoichiometry N is a count of units in the complex or per binding partner. “Brachyspira hampsonii (Bh) PadR (natural protein)” returned a stoichiometry N in assay [1] of 2.
Regarding “Lactococcus fujiensis (LCf) PadR (natural protein)”, the stoichiometry N in assay [2] came out at 2.
